Laboratory results published in the supplement of paper PMC7877785.
± gives the uncertainty stated by the source.

Assay: self-splicing fitness, log relative to wild type (ln ratio); higher = more splicing; Tetrahymena group I intron in knt gene, E. coli kanamycin selection, DiMSum; sequences stand for … in CUCUCU…GGAGGGAAAAGUUAUCAGGCAUGCACCUGGUAGCUAGUCUUUAAACCAAUAGAUUGCAUCGGUUUAAAAGGCAAGACCGUCAAAUUGCGGGAAAGGGGUCAACAGCCGUUCAGUACCAAGUCUCAGGGGAAACUUUGAGAUGGCCUUGCAAAGGGUAUGGUAAUAAGCUGACGGACAUGGUCCUAACCACGCAGCCAAGUCCUAAGUCAACAGAUCUUCUGUUGAUAUGGAUGCAGUUCACAGACUAAAUGUCGGUCGGGGAAGAUGUAUUCUUCUCAUAAGAUAUAGUCGGACCUCUCCUUAAUGGGAGCUAGCGGAUGAAGUGAUGCAACACUGGAGCCGCUGGGAACUAAUUUGUAUGCGAAAGUAUAUUGAUUAGUUUUGGAGUACUCGUGGUCG
Outline: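 Six replicate transformations of E. coli BL21(DE3) with a pET-22b(+) library were grown overnight at 37°C or 30°C. The library randomised all eight P1ex-region intron nucleotides, the intron lying in the knt kanamycin-resistance gene, and plates were LB agar with or without 25 μg/mL kanamycin plus 100 μg/mL carbenicillin, 50 μM IPTG and 0.2% rhamnose. Pooled colonies were amplicon-sequenced on an Illumina HiSeq 2500, and fitness is the DiMSum error-weighted combination of wild-type-normalised replicate fold changes, kanamycin versus none.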

| Sequence | self-splicing fitness (ln) (30 °C) | self-splicing fitness (ln) (37 °C) |
| --- | --- | --- |
| UUCUAGCAAUAUUACGCGAA | -2.25 ± 0.21 | -1.3 ± 0.2 |
| UUCUAGCAAUAUUACGCUAA | -2.53 ± 0.21 | -0.91 ± 0.14 |
| UUCUAGCAAUAUUACGCUAC | -2.37 ± 0.38 | – |
| UUCUAGCAAUAUUACGCUGU | -2.17 ± 0.17 | -1.63 ± 0.2 |
| UUCUAGCAAUAUUACGGAUG | -1.05 ± 0.098 | -0.888 ± 0.13 |
| UUCUAGCAAUAUUACGGCUU | -3.3 ± 0.39 | -2.22 ± 0.28 |
| UUCUAGCAAUAUUACGGGUG | -0.114 ± 0.078 | 0.281 ± 0.11 |
| UUCUAGCAAUAUUACGGUCC | – | -2.46 ± 0.39 |
| UUCUAGCAAUAUUACGGUGG | -4.34 ± 0.39 | -2.5 ± 0.26 |
| UUCUAGCAAUAUUACGGUUG | -1.64 ± 0.11 | -1.78 ± 0.17 |
| UUCUAGCAAUAUUACGUACA | -1.39 ± 0.19 | -0.376 ± 0.22 |
| UUCUAGCAAUAUUACGUACG | -1.82 ± 0.14 | -0.281 ± 0.14 |
| UUCUAGCAAUAUUACGUCUG | -2.22 ± 0.12 | -2.49 ± 0.21 |
| UUCUAGCAAUAUUACGUGAG | -0.386 ± 0.06 | -0.345 ± 0.11 |
| UUCUAGCAAUAUUACGUGCG | -1.98 ± 0.14 | -2.14 ± 0.13 |
| UUCUAGCAAUAUUACGUGUU | -3.36 ± 0.17 | -3.2 ± 0.19 |
| UUCUAGCAAUAUUACGUUAG | -3.63 ± 0.29 | -2.67 ± 0.37 |
| UUCUAGCAAUAUUACGUUCA | -0.579 ± 0.16 | -1.11 ± 0.18 |
| UUCUAGCAAUAUUACGUUCG | -2.17 ± 0.14 | -1.29 ± 0.16 |
| UUGAAGCAAUAUUACGAAGC | -3.4 ± 0.3 | -2.48 ± 0.49 |

| Sequence | self-splicing fitness (ln) (30 °C) | self-splicing fitness (ln) (37 °C) |
| --- | --- | --- |
| UUGAAGCAAUAUUACGCAGA | -0.643 ± 0.13 | 0.228 ± 0.11 |
| UUGAAGCAAUAUUACGCAGG | -1.15 ± 0.092 | -0.283 ± 0.098 |
| UUGAAGCAAUAUUACGCCUC | – | -1.63 ± 0.42 |
| UUGAAGCAAUAUUACGCUGU | -1.96 ± 0.14 | -1.84 ± 0.16 |
| UUGAAGCAAUAUUACGCUUA | -1.17 ± 0.083 | -0.467 ± 0.093 |
| UUGAAGCAAUAUUACGGAUU | -1.18 ± 0.081 | -0.94 ± 0.12 |
| UUGAAGCAAUAUUACGGCUA | -0.00358 ± 0.093 | -0.295 ± 0.096 |
| UUGAAGCAAUAUUACGGUCA | -0.522 ± 0.075 | -0.262 ± 0.099 |
| UUGAAGCAAUAUUACGUAGU | -1.97 ± 0.12 | -1.54 ± 0.12 |
| UUGAAGCAAUAUUACGUAUG | -0.752 ± 0.079 | -0.391 ± 0.11 |
| UUGAAGCAAUAUUACGUCUU | -3.1 ± 0.18 | -1.24 ± 0.12 |
| UUGAAGCAAUAUUACGUUCA | 0.472 ± 0.094 | 0.134 ± 0.11 |
| UUGAAGCAAUAUUACGUUUA | -1.08 ± 0.062 | -0.682 ± 0.084 |
| UUGCAGCAAUAUUACGAAAA | -1.02 ± 0.12 | -0.432 ± 0.12 |
| UUGCAGCAAUAUUACGAACG | -0.781 ± 0.19 | -0.482 ± 0.2 |
| UUGCAGCAAUAUUACGACCG | -0.719 ± 0.065 | -0.144 ± 0.093 |
| UUGCAGCAAUAUUACGACCU | -0.892 ± 0.1 | -0.129 ± 0.15 |
| UUGCAGCAAUAUUACGACGC | -3.11 ± 0.46 | – |
| UUGCAGCAAUAUUACGAGAG | -3.54 ± 0.23 | -1.36 ± 0.21 |
